This is an account of results in patent US20250011418A1 (ZIELBIO, published 2025).

The test deals with T1, Sec8-His (section 8 (Sec8), an antigenic region of CSP-1, tagged with a polyhistidine (His) tag).
T1 construct: also called Sec8-His antigen
T1 chain: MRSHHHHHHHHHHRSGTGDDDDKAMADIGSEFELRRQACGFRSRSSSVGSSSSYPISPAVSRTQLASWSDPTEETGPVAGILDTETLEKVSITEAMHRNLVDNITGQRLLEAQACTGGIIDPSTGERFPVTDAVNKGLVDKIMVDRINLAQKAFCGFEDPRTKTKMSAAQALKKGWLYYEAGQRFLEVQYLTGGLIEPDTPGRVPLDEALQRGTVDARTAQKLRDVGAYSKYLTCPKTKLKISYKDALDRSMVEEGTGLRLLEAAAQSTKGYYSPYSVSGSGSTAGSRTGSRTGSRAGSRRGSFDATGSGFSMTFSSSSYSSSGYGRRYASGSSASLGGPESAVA
The test is described as follows: BLI (Octet), single shot: antibody on anti-human IgG tips, 24 nM Sec8-His. How it is done: After humanization, the antibodies were tested for their capability to bind to an antigenic region of CSP-1 called section 8 (Sec8). Antigen binding was assessed by single-shot Octet analysis. Antibodies were loaded onto anti-human IgG tips, and the loaded tips were dipped into wells containing the Sec8-His antigen. Scouting experiments were used to determine ideal conditions for loading (10 minute incubation in 1 μg/mL IgG) and antigen binding (5 minute incubation in 24 nM Sec8-His, followed by a 5 minute dissociation step in buffer). Two negative controls were included with each experiment. First, a tip was loaded with irrelevant IgG dipped into 24 nM Sec8-His to control for non-specific interactions between the tip and the antigen. Next, tips loaded with humanized 1D7 variants were dipped into 24 nM GST-His to control for off-target binding of the antibody (a significant risk if a given variant is destabilized and/or exposes significant hydrophobic surface). The data from the irrelevant IgG control were subtracted from the data obtained with the […]-loaded tips. The mean and standard deviation of the signal change values for the GST-His control wells were used to calculate a threshold for positive binding (mean+3 standard deviations of the GST-His signal). Variants that were below this threshold are considered to have no specific binding to Sec8.

Substitutions are numbered along the chain they refer to.

B1: humanized anti-CSP-1 antibody, Antibody Number 21 (Table 1) (antibody, human IgG1, V domains shown)
VH: EVQLVESGGDLVKPGGSLKLSCAASGFTFSRYGMSWVRQTPDKRLEWVATISIGGTYTYYPDSMKGRFTISRDNAKNTLYLQMSSLKSEDTAMYYCARRGYGNYSYYGVDYWGQGTSVTVSS
VL: DIVMTQAAFSNPVTLGTSASISCRSSKSLLHSNGITYLYWYLQKPGQSPQLLIYQMSNLASGVPDRFSSSGSGTDFTLRISRVEAEDVGVYYCAQNLELPLTFGAGTKLELK
notes: also called Antibody 21
On to B1, for which the binding result is “binds”.

B2: humanized anti-CSP-1 antibody, Antibody Number 49 (Table 1) (antibody, human IgG1, V domains shown)
VH: EVQLVESGGGLVQPGGSLRLSCAASGFTFSRYGMSWVRQAPGKRLEWVATISIGGTYTYYPDSMKGRFTISRDNSKNTLYLQMNSLRAEDTAMYYCARRGYGQYSYYGMDYWGQGTLVTVSS
VL: B1 VL with A7S, F9L, T17Q, L59R, R79K, A105Q, L111I
notes: also called Antibody 49
In the case of B2, the binding result is on record as “binds”.

B3: humanized anti-CSP-1 antibody, Antibody Number 37 (Table 1) (antibody, human IgG1, V domains shown)
VH: B2 VH with Q103N
VL: B1 VL with A7S, F9L, N11L, T17Q, L59R, R79K, A105Q, L111I
notes: also called Antibody 37
On to B3, for which the binding result is recorded as “binds”.

B4: humanized anti-CSP-1 antibody, Antibody Number 30 (Table 1) (antibody, human IgG1, V domains shown)
VH: EVQLVESGGEVVKPGASLKLSCKASGFTFSRYGMSWVRQAPGQRLEWVATISIGGTYTYYPDSMKGRFTITRDNSTNTLYLEMSSLRSEDTAMYYCARRGYGNYSYYGMDYWGQGTLVTVSS
VL: B1 VL
notes: also called Antibody 30
Turning to B4, the binding result was “binds”.

B5: humanized anti-CSP-1 antibody, Antibody Number 39 (Table 1) (antibody, human IgG1, V domains shown)
VH: B2 VH with R44G, M93V, Q103N
VL: B1 VL with A7S, F9L, N11L, T17Q, L59R, R79K, A105Q, L111I
notes: also called Antibody 39
B5: the binding result was “binds”.

B6: humanized anti-CSP-1 antibody, Antibody Number 36 (Table 1) (antibody, human IgG1, V domains shown)
VH: B2 VH with Q103N
VL: B1 VL with A7S, F9L, T17Q, L59R, R79K, A105Q, L111I
notes: also called Antibody 36
Take B6: the binding result is reported as “binds”.

B7: humanized anti-CSP-1 antibody, Antibody Number 45 (Table 1) (antibody, human IgG1, V domains shown)
VH: EVQLVESGGGLVKPGGSLRLSCAASGFTFSRYGMNWVRQAPGKGLEWVSSISIGGTYTYYADSVKGRFTISRDNAKNSLYLQMNSLRAEDTAVYYCARRGYGNYSYYGMDYWGQGTLVTVSS
VL: B1 VL with A7S, A8P, F9L, N11L, L15P, T17E, S18P, R79K, A105Q, L111I
notes: also called Antibody 45
Turning to B7, the binding result is “binds”.

B8: humanized anti-CSP-1 antibody, Antibody Number 38 (Table 1) (antibody, human IgG1, V domains shown)
VH: B2 VH with R44G, M93V, Q103N
VL: B1 VL with A7S, F9L, T17Q, L59R, R79K, A105Q, L111I
notes: also called Antibody 38
For the molecule B8, the binding result is given as “binds”.

B9: humanized anti-CSP-1 antibody, Antibody Number 50 (Table 1) (antibody, human IgG1, V domains shown)
VH: B2 VH with M109L
VL: B1 VL with A7S, F9L, T17Q, L59R, R79K, A105Q, L111I
notes: also called Antibody 50
Take B9: the binding result is reported as “binds”.

B10: humanized anti-CSP-1 antibody, Antibody Number 35 (Table 1) (antibody, human IgG1, V domains shown)
VH: B4 VH
VL: B1 VL with A7S, F9L, T17Q, L59R, R79K, A105Q, L111I
notes: also called Antibody 35
Regarding B10, the binding result is given as “binds”.

B11: humanized anti-CSP-1 antibody, Antibody Number 46 (Table 1) (antibody, human IgG1, V domains shown)
VH: B7 VH with N35S
VL: B1 VL with A7S, A8P, F9L, N11L, L15P, T17E, S18P, R79K, A105Q, L111I
notes: also called Antibody 46
For B11, the binding result was “binds”.

B12: humanized anti-CSP-1 antibody, Antibody Number 23 (Table 1) (antibody, human IgG1, V domains shown)
VH: B1 VH with V109M
VL: B1 VL with N33V
notes: also called Antibody 23
Regarding B12, the binding result was “binds”.

B13: humanized anti-CSP-1 antibody, Antibody Number 22 (Table 1) (antibody, human IgG1, V domains shown)
VH: B1 VH with V109M
VL: B1 VL with N33S
notes: also called Antibody 22
As for B13, the binding result was “binds”.

B14: humanized anti-CSP-1 antibody, Antibody Number 33 (Table 1) (antibody, human IgG1, V domains shown)
VH: B1 VH with V109M
VL: B1 VL with A7S, F9L, T17Q, L59R, R79K, A105Q, L111I
notes: also called Antibody 33
Regarding B14, the binding result is “binds”.

B15: humanized anti-CSP-1 antibody, Antibody Number 34 (Table 1) (antibody, human IgG1, V domains shown)
VH: B1 VH with V109M
VL: B1 VL with A7S, F9L, N11L, T17Q, L59R, R79K, A105Q, L111I
notes: also called Antibody 34
Consider B15, for which the binding result is reported as “binds”.

B16: humanized anti-CSP-1 antibody, Antibody Number 29 (Table 1) (antibody, human IgG1, V domains shown)
VH: B1 VH with V109M
VL: B1 VL with M56I
notes: also called Antibody 29
For the molecule B16, the binding result is given as “binds”.

B17: humanized anti-CSP-1 antibody, Antibody Number 32 (Table 1) (antibody, human IgG1, V domains shown)
VH: B2 VH with R44G, M93V, Q103N
VL: B1 VL
notes: also called Antibody 32
In the case of B17, the binding result is on record as “binds”.

B18: humanized anti-CSP-1 antibody, Antibody Number 31 (Table 1) (antibody, human IgG1, V domains shown)
VH: B2 VH with Q103N
VL: B1 VL
notes: also called Antibody 31
As to B18, the binding result is given as “binds”.

B19: humanized anti-CSP-1 antibody, Antibody Number 27 (Table 1) (antibody, human IgG1, V domains shown)
VH: B1 VH with V109M
VL: B1 VL with M56V
notes: also called Antibody 27
For the molecule B19, the binding result is “binds”.

B20: humanized anti-CSP-1 antibody, Antibody Number 25 (Table 1) (antibody, human IgG1, V domains shown)
VH: B1 VH with V109M
VL: B1 VL with N33Q
notes: also called Antibody 25
B20: the binding result is “binds”.

B21: humanized anti-CSP-1 antibody, Antibody Number 28 (Table 1) (antibody, human IgG1, V domains shown)
VH: B1 VH with V109M
VL: B1 VL with M56L
notes: also called Antibody 28
Take B21: the binding result is listed as “binds”.

B22: humanized anti-CSP-1 antibody, Antibody Number 26 (Table 1) (antibody, human IgG1, V domains shown)
VH: B1 VH with V109M
VL: B1 VL with N33E
notes: also called Antibody 26
As for B22, the binding result is on record as “binds”.

B23: humanized anti-CSP-1 antibody, Antibody Number 24 (Table 1) (antibody, human IgG1, V domains shown)
VH: B1 VH with V109M
VL: B1 VL with N33D
notes: also called Antibody 24
As to B23, the binding result was “binds”.

B24: humanized anti-CSP-1 antibody, Antibody Number 42 (Table 1) (antibody, human IgG1, V domains shown)
VH: QIQLVQSGSELKKPGASVKVSCKASGYTFTDYSMHWVRQAPGQGLEWMGWINTETGEPTYAQGFTGRFVFSLDTSVSTAYLQISSLKAEDTAVYFCAPGGFAYWGQGTLVTVSS
VL: DIVMTQSPLSLPVTPGEPASISCRSSKSLLHSNGNTYLYWFLQKPGQSPQLLIYRMSNLASGVPDRFSGSGSGTDFTLKISRVEAEDVGVYYCMQHLEYPLTFGAGTKLELK
notes: also called Antibody 42
In the case of B24, the binding result is recorded as “binds”.

B25: humanized anti-CSP-1 antibody, Antibody Number 8 (Table 1) (antibody, human IgG1, V domains shown)
VH: QIQLVQSGPEVKKPGASVKISCKASGYTFTDYSMHWVRQAPGQGLEWMGWINTETGEPTYAQKFQGRFTFTLDTSTSTAYLEISSLRSEDTAVYFCAPGGFAYWGQGTLVTVSS
VL: B24 VL with S7A, P8A, L9P, L11V, P18S, A19V, K44R, D75A, K79R
notes: also called Antibody 8
Take B25: the binding result is recorded as “binds”.

B26: humanized anti-CSP-1 antibody, Antibody Number 43 (Table 1) (antibody, human IgG1, V domains shown)
VH: B7 VH
VL: B24 VL with N35I, F41Y, R55Q, L59R, M94A, H96N, Y99L, A105Q, L111I
notes: also called Antibody 43
As to B26, the binding result is “binds”.

B27: humanized anti-CSP-1 antibody, Antibody Number 44 (Table 1) (antibody, human IgG1, V domains shown)
VH: B7 VH
VL: B24 VL with N35I, F41Y, R55Q, M94A, H96N, Y99L, A105Q, L111I
notes: also called Antibody 44
With B27, the binding result is recorded as “binds”.

B28: humanized anti-CSP-1 antibody, Antibody Number 48 (Table 1) (antibody, human IgG1, V domains shown)
VH: B24 VH
VL: B24 VL with M56L
notes: also called Antibody 48
B28: the binding result was “binds”.

B29: humanized anti-CSP-1 antibody, Antibody Number 41 (Table 1) (antibody, human IgG1, V domains shown)
VH: B24 VH
VL: B24 VL with L59R, A105Q, L111I
notes: also called Antibody 41
With B29, the binding result is “binds”.

B30: humanized anti-CSP-1 antibody, Antibody Number 40 (Table 1) (antibody, human IgG1, V domains shown)
VH: B24 VH with I2V, H35N, F95Y
VL: B24 VL with L59R, A105Q, L111I
notes: also called Antibody 40
Turning to B30, the binding result is “binds”.
